Among the data in patent EP2852397B1 are IC50, veratridine-induced depolarization inhibition assay, IC50, veratridine-induced depolarization inhibition assay (FRET, FLIPR Tetra) and ratio of IC50 for Nav1.2 to IC50 for Nav1.7 values, retold here.

In test [1] the target is human Nav1.2 (human) (UniProt Q99250). Briefly: cell-based or functional assay.
The target of test [2] is human Nav1.7 (human) (UniProt Q15858). Briefly: cell-based or functional assay.

Turning to recombinant Huwentoxin-IV (peptide), the IC50, veratridine-induced depolarization inhibition assay in test [1] came to 342 nM. Also, in test [2], the IC50, veratridine-induced depolarization inhibition assay is 159 nM; the IC50, veratridine-induced depolarization inhibition assay (FRET, FLIPR Tetra) stood at 160 nM; the ratio of IC50 for Nav1.2 to IC50 for Nav1.7 stood at 2.14.
